According to patent publication US20100280227A1 (Genentech, published 2010):
Changes are numbered by the printed parent chain. Names may count otherwise. “And” between values parts separate entries of the source, which are not always exact repeats. Equal entries are not always repeated. Where two headings read alike, the source gives them in different places. One block for each binder: values may come before it.

What was measured:
[1] = target: T1, human BR3 extracellular domain (human, UniProt Q96RJ3 1-61); test: BIAcore, Fab over immobilised target
T1 construct: biotinylated where used as tracer; also called hBR3-ECD; BR3-ECD
Method: (§1) Each sample was analysed with 2-minute association and 20-minute dissociation. After each injection the chip was regenerated using 10 mM Glycine pH 1.5. Binding response was corrected by subtracting the RU from a blank flow cell. A 1:1 Languir model of simultaneous fitting of kₒₙ and koff was used for kinetics analysis.

[2] = target: T2, variant human BR3-Fc fusion; test: BIAcore, Fab over immobilised target
T2 construct: produced in CHO cells; also called vBR3-Fc; vhBR3-Fc
Method: as §1

[3] = target: T1, human BR3 extracellular domain; test: SPR, BR3 ECD on chip;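 note: Anti-BR3 antibodies passed over the chip at high flow in PBS with 0.05% polysorbate 20, on and off rates fitted together globally to a 1:1 binding model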
Method: After coupling, unoccupied sites on the chip were blocked by injecting 20 μl of 1M ethanolamine, pH 8.5. The running buffer was PBS containing 0.05% polysorbate 20. […] The binding surface was regenerated by injecting 20-30 μl of 10 mM glycine.HCl (pH 1.5). […] Data were analyzed using a 1:1 binding model using global fitting. The association and dissociation rate constants were fitted simultaneously (BIAevaluation software).
A high flow rate was used in order to minimize mass transport effects.

[4] = target: T2, variant human BR3-Fc fusion; test: SPR, vBR3-Fc on chip;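 note: Anti-BR3 antibodies passed over chip-bound BR3-Fc in PBS with 0.05% polysorbate 20, on and off rates fitted together globally to a 1:1 binding model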
[5] = target: T3, human BR3 expressed on cells (human, UniProt Q96RJ3 1-184); test: BJAB cells, competition with biotin-BAFF
T3 construct: whole, on cells; also called BR3 on BJAB cells; cell surface BR3
Method: (§2) The diluted samples were added to the pelleted BJAB cells in 96 well plates as described above. After 45 min incubation on ice, the cells were washed twice with 200 μl cold assay buffer, and streptavidin-HRP (AMDEX, Amersham Biosciences, Piscataway, N.J.) diluted 1/5,000 in assay buffer was added (100 μl/well). The plates were incubated for a final 45 min on ice. After washing twice with cold assay buffer, color was developed using TMB, the reaction was stopped with H₃PO₄, and the plates were read as described above.

[6] = target: T3, human BR3 expressed on cells; test: BJAB cells, direct binding
Method: Direct and competitive binding assays were performed as follows. For the direct binding assay, IgG antibody samples were serially diluted in cold assay buffer to concentrations ranging between 300-0.02 nM. Samples (100 μl) were added to the pelleted cells, and the plates were incubated for 45 min on ice. An additional 100 μl assay buffer was then added to each well, and the plates were centrifuged at 1200 rpm for 5 min at 4° C. After carefully aspirating the supernatant, the cells were washed two additional times with 200 μl assay buffer. An anti-mouse IgG Fc-HRP or goat anti-human IgG Fc-HRP, as appropriate, was diluted 1/10,000 in cold assay buffer was added (100 μl/well, Jackson ImmunoResearch, West Grove, Pa.), and the plates were incubated on ice for 45 min. Following two washes with 200 μl cold assay buffer, tetramethyl benzidine (TMB, Kirkegaard & Perry Laboratories, Gaithersburg, Md.) was added, and color was allowed to develop for 10 min. One hundred microliters 1 M H₃PO₄ was added to stop the reaction. The plates were then read on a microplate reader at 450 nm with a 620 nm reference. In the direct binding assay, the indicated concentrations of mAbs were added to BJAB cells and bound mAb was detected.

[7] = target: T3, human BR3 expressed on cells; test: BJAB cells, competition with biotin-BAFF; remark: listed apart in the source
Method: as §2

[8] = target: T4, mouse BR3 extracellular domain (mouse, UniProt Q9D8D0 1-64); test: single spot phage competition ELISA; OD with competitor / OD without competitor; criterion met by the picked clones
T4 construct: also called mBR3-ECD; mBR-ECD
T4 sequence: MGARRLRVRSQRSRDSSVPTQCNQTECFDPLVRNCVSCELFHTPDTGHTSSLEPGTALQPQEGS

[9] = target: T1, human BR3 extracellular domain; test: as above
[10] = target: T4, mouse BR3 extracellular domain; test: SPR BIAcore-2000, ECD on chip, Fab injected
From the text: (§3) Biacore measurement Surface plasmon resonance assays on a BIAcore™-2000 were used to determine the affinity of anti-BR3 Fabs. […] For kinetics analysis, 1:1 Languir model of simultaneous fitting of kₒₙ and koff was used.

[11] = target: T1, human BR3 extracellular domain; test: SPR BIAcore-2000, ECD on chip, Fab injected
From the text: as §3

[12] = target: T5, MiniBR3 peptide (human, C-terminal amide; disulfide between cysteines 24 and 35 and a second disulfide (BR3 numbering)); test: phage competition ELISA
T5 construct: synthetic
T5 sequence (peptide, as listed by the source): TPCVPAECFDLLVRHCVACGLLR

[13] = target: T6, mouse BR3-Fc (mouse); test: F(ab)'2 phage solution binding competition ELISA
T6 construct: (BR3 ECD fused to a murine Fc); also called mBR3-Fc; murine BR3-Fc
T6 chain: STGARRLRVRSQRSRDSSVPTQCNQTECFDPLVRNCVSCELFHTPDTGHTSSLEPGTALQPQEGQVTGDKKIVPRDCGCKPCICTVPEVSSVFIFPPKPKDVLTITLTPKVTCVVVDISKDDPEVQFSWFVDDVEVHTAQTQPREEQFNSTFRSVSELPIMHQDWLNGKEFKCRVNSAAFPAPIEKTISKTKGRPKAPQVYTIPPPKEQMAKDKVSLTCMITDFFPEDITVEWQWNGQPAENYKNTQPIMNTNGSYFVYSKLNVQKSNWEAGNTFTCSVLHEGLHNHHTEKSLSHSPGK
Method: (§4) Third, a competition ELISA was performed. […] The wells were blocked by adding 65 ul 1% BSA for 30 minutes followed by 40 ul 1% Tween20 for another 30 minutes. The wells were washed with PBS—0.05% Tween20 5 times. […] The wells of the second plate were washed with PBS—0.5% Tween20 at least three times. 75 ul of HRP-conjugated anti-M13 antibody (1/5000 dilution with ELISA buffer) per well was added and incubated at room temperature for 30 minutes. The wells were washed again with PBS—0.05% Tween20 at least five times.

[14] = target: T1, human BR3 extracellular domain; test: F(ab)'2 phage solution binding competition ELISA
Method: as §4

[15] = target: T4, mouse BR3 extracellular domain; test: F(ab)'2 phage solution binding competition ELISA
Method: as §4

[16] = target: T4, mouse BR3 extracellular domain; test: SPR BIAcore-2000, mBR3-ECD on chip, Fab injected
From the text: as §3

[17] = target: T1, human BR3 extracellular domain; test: SPR BIAcore-2000, hBR3-ECD on chip, Fab injected
From the text: as §3

[18] = target: T4, mouse BR3 extracellular domain; test: SPR BIAcore-3000, Fab
From the text: (§5) Surface plasmon resonance assays on a BIAcore™-3000 were used to determine the affinity of the Fabs.

[19] = target: T1, human BR3 extracellular domain; test: SPR BIAcore-3000, Fab
From the text: as §5

Kd [1]: 21.5 nM
Kd [2]: > 100 nM
Kd [3]: 19.5 nM and 23.5 nM
koff [3]: 0.0233 s⁻¹ and 0.0263 s⁻¹
kon [3]: 1.2e+06 M⁻¹ s⁻¹ and 1.12e+06 M⁻¹ s⁻¹
B1: chimeric 11G9 Fab (Fab, V domains shown)
VH: DVQLQESGPSLVKPSQTLSLTCSVTGDSITSGYWNWIRKFPGNKLEYMGYISYSGSTYYNPSLKSRISITRDTSKNQFYLQLLSVTTEDTATYYCAGLDGLYWYFDVWGAGTLVTVSS
VL: DIVMTQTPLSLPVSLGDQASISCRSSQSLVHSNGNTYLHWYLQKPGQSPKLLIYKVSNRFSGVPDRFSGSGSGTDFTLKISRVEAEDLGVYFCSQSTHVPPFTFGSGT
notes: Fab with murine variable domains; also called Ch 11G9 Fab

Kd [4]: 2.78 nM
koff [4]: 0.00218 s⁻¹
kon [4]: 780000 M⁻¹ s⁻¹
IC50 [5]: 0.45 nM
Kd [3]: 0.34 nM
koff [3]: 0.000549 s⁻¹
kon [3]: 1.64e+06 M⁻¹ s⁻¹
B2: chimeric 11G9 IgG (antibody, V domains shown)
VH: B1 VH
VL: B1 VL
notes: also called Ch 11G9 IgG

Kd [2]: 0.45 nM
Kd [4]: 0.43 nM and 0.48 nM
koff [4]: 0.000215 s⁻¹ and 0.000225 s⁻¹
kon [4]: 500000 M⁻¹ s⁻¹ and 470000 M⁻¹ s⁻¹
Kd [3]: 0.31 nM and 0.32 nM
koff [3]: 0.000174 s⁻¹ and 0.000175 s⁻¹
kon [3]: 560000 M⁻¹ s⁻¹ and 550000 M⁻¹ s⁻¹
B3: Hu9.1-73 Fab (Fab, V domains shown)
VH: EVQLVESGGGLVQPGGSLRLSCAASGLPMAGFYTSWVRQAPGKGLEWVGFIRDKANGYTTEYNPSVKGRFTISADTSKNTAYLQMNSLRAEDTAVYYCAQVRRALDYWGQGTLVTVSS
VL: DIQMTQSPSSLSASVGDRVTITCKSSQSLLYSSNQNNYLAWYQQKPGKAPKLLIYWAQHLDSGVPSRFSGSGSGTDFTLTISSLQPEDFATYYCQQYYTYPYTFGQGTKVEIKR
notes: Fab expressed in E. coli

Kd [1]: 6.3 nM
Kd [2]: 11 nM
Kd [4]: 1.37 nM
koff [4]: 0.000742 s⁻¹
kon [4]: 541000 M⁻¹ s⁻¹
Kd [3]: 0.736 nM
koff [3]: 0.00101 s⁻¹
kon [3]: 1.37e+06 M⁻¹ s⁻¹
B4: Hu9.1-88 Fab (Fab, V domains shown)
VH: B3 VH with L27F, M29V, A30T, F32S, T34V, A74R, A81L
VL: B3 VL with Q58S, H59T, L60R, D61E
notes: Fab

Kd [1]: 0.115 nM
Kd ([4]; 140 RU BR3-Fc immobilized): 1.12 nM
koff ([4]; 140 RU BR3-Fc immobilized): 0.00148 s⁻¹
kon ([4]; 140 RU BR3-Fc immobilized): 1.32e+06 M⁻¹ s⁻¹
Kd ([4]; 220 RU BR3-Fc immobilized): 0.92 nM
koff ([4]; 220 RU BR3-Fc immobilized): 0.00145 s⁻¹
kon ([4]; 220 RU BR3-Fc immobilized): 1.58e+06 M⁻¹ s⁻¹
Kd [3]: 0.12 nM and 0.11 nM
koff [3]: 0.000271 s⁻¹ and 0.000294 s⁻¹
kon [3]: 2.25e+06 M⁻¹ s⁻¹ and 2.65e+06 M⁻¹ s⁻¹
B5: chimeric 2.1 Fab (Fab, V domains shown)
VH: EVQLQESGPSLVKPSQTLSLTCSVTGDSITRGYWNWIRKFPGNKLEFMGYINYSGTTYYNPSLKSRISITRDTSKNQYYLQLNSVTTEDTATYYCATPHTYGAMDYWGQGTTLTVSA
VL: DIVLTQSPVSLAVSLGQRATISCRASESVDDYGISFMHWYQQKPGQPPKLLIYRASDLESGIPARFSGSGSGTDFTLTINPVETDDVAIYYCQQTSKDPWTFGGGT
notes: Fab with murine variable domains; also called Ch 2.1 Fab

EC50 [6]: 0.14 nM
Kd [4]: 0.04 nM
koff [4]: 3.8e-05 s⁻¹
kon [4]: 980000 M⁻¹ s⁻¹
IC50 [5]: 0.23 nM
Kd [3]: 0.04 nM
koff [3]: 6.8e-05 s⁻¹
kon [3]: 1.68e+06 M⁻¹ s⁻¹
IC50 [7]: 0.2 nM
B6: chimeric 2.1 IgG (antibody, V domains shown)
VH: B5 VH
VL: B5 VL
notes: also called Ch 2.1 IgG; ch 2.1

OD450nm reduction (%) [8]: < 50%
OD450nm reduction (%) [9]: < 50%
Kd [10]: 20.4 nM
koff [10]: 0.000888 s⁻¹
kon [10]: 43600 M⁻¹ s⁻¹
Kd [11]: 60.1 nM
koff [11]: 0.00113 s⁻¹
kon [11]: 21800 M⁻¹ s⁻¹
IC50 [12]: 11 nM
B7: V3-11 Fab (Fab, V domains shown)
VH: EVQLVESGGGLVQPGGSLRLSCAASGFTISSNSIHWVRQAPGKGLEWVAWITPSDGNTDYADSVKGRFTISADTSKNTAYLQMNSLRAEDTAVYYCARRVCYNNLGVCAGAMDYWGQGTLVTVSS
VL: DIQMTQSPSSLSASVGDRVTITCRASQDVSTAVAWYQQKPGKAPKLLIYSASFLYSGVPSRFSGSGSGTDFTLTISSLQPEDFATYYCQQTSTSPPTFGQGTKVEIKR
notes: soluble Fab in SPR

binding result [13]: binds
binding result [14]: binds
B8: 46 (Fab, V domains shown)
VH: EVQLVESGGGLVQPGGSLRLSCAASGFTITGSYIHWVRQAPGKGLEWVAWIYPDGGYTDYADSVKGRFTISADTSKNTAYLQMNSLRAEDTAVYYCASKPAGFGYWGQGTLVTVSS
VL: B7 VL with T91S, S92Y, S94T
notes: also called V46; clone 46 of the naive library (not V3-46)

IC50 [15]: 1500 nM
binding result [14]: no binding
B9: 44 (Fab, V domains shown)
VH: EVQLVESGGGLVQPGGSLRLSCAASGFTITGSYIHWVRQAPGKGLEWVAWIYPDGGYTDYADSVKGRFTISADTSKNTAYLQMNSLRAEDTAVYYCASKPAGPFGYWGQGTLVTVSS
VL: B7 VL with T91S, S92Y, S94T
notes: also called V44; clone 44

Kd [16]: 1 nM
koff [16]: 0.00027 s⁻¹
kon [16]: 270000 M⁻¹ s⁻¹
Kd [17]: 0.6 nM
koff [17]: 8.6e-05 s⁻¹
kon [17]: 140000 M⁻¹ s⁻¹
Kd [18]: 1 nM
koff [18]: 0.00027 s⁻¹
kon [18]: 270000 M⁻¹ s⁻¹
Kd [19]: 0.6 nM
koff [19]: 8.6e-05 s⁻¹
kon [19]: 140000 M⁻¹ s⁻¹
B10: V3-46s Fab (Fab, V domains shown)
VH: B7 VH with N32S, I51V, T52L, D55V, N57F, N104R, A111G
VL: B7 VL with T91S, S92Q, T93I
notes: N31S mutant of V3-46; also called V46s; N31S

binding result [15]: no binding
binding result [14]: binds
B11: 51 (Fab, V domains shown)
VH: EVQLVESGGGLVQPGGSLRLSCAASGFTISSTGIHWVRQAPGKGLEWVGGISPSSGSTNYADSVKGRFTISADTSKNTAYLQMNSLRAEDTAVYYCARRKVVSSHVTNKYVMDYWGQGTLVTVSS
VL: B7 VL with T91S, S92Y, S94T
notes: also called V51; clone 51

binding result [15]: no binding
IC50 [13]: > 10000 nM
binding result [14]: binds
B12: 75 (Fab, V domains shown)
VH: EVQLVESGGGLVQPGGSLRLSCAASGFTINGSWIHWVRQAPGKGLEWVAWITPSNGSTDYADSVKGRFTISADTSKNTAYLQMNSLRAEDTAVYYCARLSRRPWLWGMDYWGQGTLVTVSS
VL: B7 VL with T91S, S92Y, S94T
notes: also called V75; clone 75

IC50 [5]: 5.97 nM
B13: V3-1h (antibody, human IgG1, V domains shown)
VH: B7 VH with N104R, A111G
VL: B7 VL with T91S, S92R, T93I, S94T
